Molecular target: Intercellular Adhesion Molecule-1 (ICAM-1), wild type, on the cell surface (human) (UniProt P05362)
Test: COS cell adhesion to purified LFA-1, no antibody

- % of Cells Expressing ICAM-1 that Bind LFA-1: 20%
Substance: purified LFA-1, bound to plastic (from UniProt P20701) (receptor)

Reference: patent US20090035321A1, “Intercellular adhesion molecules and their binding ligands” (Boehringer Ingelheim Pharmaceuticals, Inc., published 2009)
